Results taken from PMC2553180.

How the values were obtained:
[1] = target: previously unrecognized receptor on the RBC (receptor for PfRH5) (human (endogenous in erythrocytes)); assay: other fluorescence titration; […] fit for identical independent binding sites
[2] = target: previously unrecognized receptor on the RBC (receptor for PfRH5) (human (endogenous in erythrocytes)); assay: other fluorescence titration; competition: 2 µM rhodamine-rRH5 with 25 µl packed RBC ghosts in PBS and increasing unlabeled rRH5 (0.1 to 400 µM), 2 h at RT, bound labeled rRH5 by spectrofluorimetry

| Substance | Kd [1] | IC50 [2] |
| --- | --- | --- |
| rhodamine-labeled rRH5 (domain or fragment) | 12 µM | – |
| recombinant PfRH5 protein (rRH5), 143-aa fragment Asn-31 to Val-174, GST fusion (domain or fragment) | – | 50 µM |
